{
  "source": "patent US20110093983A1",
  "about": "“ALGAL GLYCEROL-3 PHOSPHATE ACYLTRANSFERASE” (National Research Council of Canada, priority 2008, published 2011)",
  "molecules": {"B1": {"name": "TpGPAT1: membrane-bound glycerol-3-phosphate acyltransferase from T. pseudonana, 674 amino acids, SEQ ID NO:2 (nucleotide SEQ ID NO:1) (protein, listed as Thalassiosira pseudonana)", "chain": "MGVEKKGTMMSELDYTKAQLAFFYIVVLLSLDMLNPVKIFLHVFPAIKSWHIATFAIACMSYIFIVNLRELLYFATKVFFHSILSIFFNDVTVVGRENIPSHGPVIFTSNHANQFMDGLMIMCTCQRTISYLVADKSWNRPIIGHLAWMMGGVPVKRAQDSACKGTGKISIDLNALAGSDAVINVVGKGTSFTSQIKAGDKIRLPNNAIGIKVESIESDESMSLKVEDGVAEVLSSHPFPEYVTYDILPRIDQKDVYQNVLEKLASGGTIGIFPEGGSHDRTDLLPLKVGVALIAYSELEKDGINVPIVPVGLNYFRAHRFRGKATVEFGSPTYIEPSTLADYKKGGADKRRVCNDLLARIENSMRSVIVSVPDFETLQTIHAARRLYRQDGRNETAEQRQDMGRRFAEGYKRVLLQLGGEPPEEWLSLQSRILAYQKELNELGIRDYQVVGLDHEEVELGSESQGHSKADTVLHRMNVFGHIVHLFVIAVLAALPAMLLNLPVGLASRIYSNRRRKVALAASKVKVKGYDVMLSERVLACIVLVPSLWVVYGLLLSLFTSLDGPSLAVCFTCFPLFSYWSIMATESGMVDIKDLRPYVMRMIPSARRRLAALPATRKALRSDLRAMIKKIGPSLGDIYYEKDLNWQKIQMETKRMSMEELDPAQKDEAAKKEE"}},
  "key": {"yeast gat1 mutant [1]": {"test_system": "yeast gat1 mutant", "assay": "Fatty acid composition of TAG and phospholipids from yeast gat1 mutant expressing TpGPAT1", "assay_type": "cell-based, Saccharomyces cerevisiae", "conditions": "for Proportion of Fatty Acid 16:0 / Proportion of Fatty Acid 16:1 / Proportion of Fatty Acid 18:0 / Proportion of Fatty Acid 18:1 / Proportion of Fatty Acid Sats / Proportion of Fatty Acid Unsats: 3-day induction with 2% galactose, average ± SD, three replicates", "protocol": "(§1) Yeast cultures were grown at 28° C. in the presence of 2% (w/v) glucose and 1% (w/v) Tergitol NP-40 (Sigma, St. Louis, Mo., US). Expression of the transgene was induced at OD600 nm 0.2 to 0.3 by supplementing galactose to 2% (w/v). At that time, the appropriate FAs were added to a final concentration of 50 or 100 μM in the presence of 1% (w/v) Tergitol NP-40 (Sigma, St. Louis, Mo., US). Yeast cells (20 ml) were harvested after a 3-day incubation, total lipids from yeast homogenates were extracted using the procedure of Schneiter (2005). Separation of neutral lipids and polar lipids was performed by running the thin layer chromatography plates (Si 250-PA, Baker, Phillipsburg, N.J.) in a developing solvent of hexane: ether: acetic acid (70:30:1, v/v) and identified by co-migration with known standards. Spots corresponding to TAG and phospholipid were scraped off the TLC plates and were transmethylated with methanolic HCl and quantified by gas chromatography as described previously. (Zheng and Zou, 2001).\nTo investigate if the over-expression of TpGPAT has any effect on the fatty acids composition of yeast lipids in vivo, the gall cells harboring TpGPAT or an empty vector as control were induced for 3 days by galactose at 28° C. The total lipids was extracted and then separated into triacylglycerols (TAGS) and phospholipids by TLC for the analysis of fatty acid composition. […] Approximately 12% and 18% increase of 16:0 in phospholipids and triacylglycerols, respectively, turned 16:0 into the most dominant fatty acid in the TpGPAT expressing yeast cells, instead of 16:1 fatty acid in the mutant cells harboring the empty vector. Conversely, the unsaturated fatty acids, 16:1 and 18:1, were reduced to 15% and 21% in these two lipid species. […] Collectively, the results strongly support the finding in the in vitro substrate specificity assay that 16:0 is the most preferred substrate for TpGPAT."}, "yeast gat1 mutant [2]": {"test_system": "yeast gat1 mutant", "assay": "Incorporation of fed EPA or DHA into TAGs and phospholipids of yeast gat1 mutant", "assay_type": "cell-based, Saccharomyces cerevisiae", "conditions": "for mol % of FA in Phospholipids, DHA / mol % of FA in Phospholipids, EPA / mol % of FA in TAGS, DHA / mol % of FA in TAGS, EPA: 3-day induction", "protocol": "as §1\nYeast gat1 strain transformed with TpGPAT or empty vector pYES2.1 was grown in the presence of EPA or DHA, while being induced by galactose. Triacylglycerols (TAGS) and phospholipids from the 3-day culture were extracted and analyzed by gas chromatography for fatty acid composition. […] It was not clear if this were due to the low GPAT activity for these VLCPUFAs or the lack of EPA and DHA-CoA in the cells."}, "yeast gat1 mutant [3]": {"test_system": "yeast gat1 mutant", "assay": "Lipidomic analysis of phospholipids from yeast gat1 transformed with TpGPAT or GAT1, fed EPA or DHA", "assay_type": "cell-based, Saccharomyces cerevisiae", "conditions": "tandem mass spectrometer lipidomics", "text": "FIG. 4 graphically depicts the results of the lipidomic analysis (fatty acid composition) of the lipids from yeast gat1 mutants transformed with either TpGPAT1 or GAT1. Yeast cells expressing TpGPAT or yeast GAT1 were fed with EPA (20:5) or DHA (22:6) upon induction of the genes. Total lipids from the yeast cells were extracted and subjected to lipidomic analysis using a tandem mass spectrometer. The results are presented as the molar ratio of EPA- or DHA-containing phospholipids (PC, PE, PS, PI) in the total phospholipids.\nTo further determine the role of TpGPAT in the incorporation of VLGPUFAs into glycerolipids, yeast gat1 strain transformed with TpGPAT or GAT1 under the control of the GAL1 promoter was grown in the presence of EPA (20:5) or DHA (22:6) upon induction of the genes. Phospholipids were extracted and subjected to lipidomic analysis using a tandem mass spectrometer (testing conducted by the Kansas Lipidomics Research Center). […] It was thus concluded that TpGPAT has a role in controlling PUFA accumulation in glycerolipid."}, "Arabidopsis thaliana": {"test_system": "Arabidopsis thaliana", "assay": "Fatty acid and oil content analysis of T2 seeds from TpGPAT transgenic Arabidopsis", "assay_type": "in vivo", "conditions": "transgenic Arabidopsis lines (GW), Napin promoter", "protocol": "FIG. 5 graphically depicts the results of the analysis of the fatty acid 16:0 content of T2 seeds from TpGPAT transgenic Arabidopsis. Fatty acid analysis was performed on TpGPAT transformed Arabidopsis seeds. Fatty acid composition (as molar percentage) was determined in the seed oil extracted from 200 T2 seeds of 13 TpGPA:pSE transformed Arabidopsis lines (GW4-GW17). pSE129A empty plasmid transformed wild-type Arabidopsis was used as a control.\nFIG. 7 graphically depicts the total oil content of TpGPAT transformed Arabidopsis seeds. Oil contents (as percentage of dry weight) were determined in 200 T2 seeds of the 13 TpGPA:pSE transformed Arabidopsis lines (GW4-12; GW14-17). Wild-type Arabidopsis was used as a control (Con).\nThe full length coding region of the TpGPAT gene was amplified using pfu DNA polymerase and primers designed with two restriction sites (KpnI and XbaI) added for subsequent cloning. Then, the PCR product was digested and inserted in a plant transformation vector (pSE129A) under the control of a seed-specific promoter (Napin). The binary vector was introduced by electroporation into Agrobacterium tumefaciens strain GV3101 containing helper plasmid pMP90 (Koncz and Schell, 1986). […]"}},
  "data": [
    {"molecule": "B1", "values": [
      {"measurement": "Proportion of Fatty Acid 16:0", "setting": "yeast gat1 mutant [1]; Phospholipids", "result": "31.10 ± 3.78", "unit": "mol %"},
      {"measurement": "Proportion of Fatty Acid 16:1", "setting": "yeast gat1 mutant [1]; Phospholipids", "result": "34.15 ± 2.74", "unit": "mol %"},
      {"measurement": "Proportion of Fatty Acid 18:0", "setting": "yeast gat1 mutant [1]; Phospholipids", "result": "8.92 ± 1.49", "unit": "mol %"},
      {"measurement": "Proportion of Fatty Acid 18:1", "setting": "yeast gat1 mutant [1]; Phospholipids", "result": "25.45 ± 2.25", "unit": "mol %"},
      {"measurement": "Proportion of Fatty Acid Sats", "setting": "yeast gat1 mutant [1]; Phospholipids", "result": "40.02 ± 4.57", "unit": "mol %"},
      {"measurement": "Proportion of Fatty Acid Unsats", "setting": "yeast gat1 mutant [1]; Phospholipids", "result": "59.83 ± 4.61", "unit": "mol %"},
      {"measurement": "Proportion of Fatty Acid 16:0", "setting": "yeast gat1 mutant [1]; TAG", "result": "41.80 ± 2.17", "unit": "mol %"},
      {"measurement": "Proportion of Fatty Acid 16:1", "setting": "yeast gat1 mutant [1]; TAG", "result": "29.15 ± 1.61", "unit": "mol %"},
      {"measurement": "Proportion of Fatty Acid 18:0", "setting": "yeast gat1 mutant [1]; TAG", "result": "9.17 ± 1.22", "unit": "mol %"},
      {"measurement": "Proportion of Fatty Acid 18:1", "setting": "yeast gat1 mutant [1]; TAG", "result": "18.94 ± 0.99", "unit": "mol %"},
      {"measurement": "Proportion of Fatty Acid Sats", "setting": "yeast gat1 mutant [1]; TAG", "result": "50.97 ± 2.85", "unit": "mol %"},
      {"measurement": "Proportion of Fatty Acid Unsats", "setting": "yeast gat1 mutant [1]; TAG", "result": "48.49 ± 2.44", "unit": "mol %"},
      {"measurement": "Increase of 18:0 versus empty vector", "setting": "yeast gat1 mutant [1]; yeast gat1, both TAG and phospholipids", "result": "3-4%"},
      {"measurement": "Reduction of unsaturated fatty acids 16:1 and 18:1 in phospholipids versus empty vector", "setting": "yeast gat1 mutant [1]; yeast gat1, phospholipids", "result": 15, "unit": "%"},
      {"measurement": "Increase of 16:0 in triacylglycerols versus empty vector", "setting": "yeast gat1 mutant [1]; yeast gat1, triacylglycerols", "result": "~18", "unit": "%"},
      {"measurement": "Reduction of unsaturated fatty acids 16:1 and 18:1 in triacylglycerols versus empty vector", "setting": "yeast gat1 mutant [1]; yeast gat1, triacylglycerols", "result": 21, "unit": "%"},
      {"measurement": "mol % of FA in Phospholipids, DHA", "setting": "yeast gat1 mutant [2]; feeding concentration 50 μM", "result": "0.22 ± 0.03", "unit": "mol %"},
      {"measurement": "mol % of FA in Phospholipids, EPA", "setting": "yeast gat1 mutant [2]; feeding concentration 50 μM", "result": "0.42 ± 0.01", "unit": "mol %"},
      {"measurement": "mol % of FA in TAGS, DHA", "setting": "yeast gat1 mutant [2]; feeding concentration 50 μM", "result": "0.70 ± 0.06", "unit": "mol %"},
      {"measurement": "mol % of FA in TAGS, EPA", "setting": "yeast gat1 mutant [2]; feeding concentration 50 μM", "result": 1.18, "unit": "mol %"},
      {"measurement": "mol % of FA in Phospholipids, DHA", "setting": "yeast gat1 mutant [2]; feeding concentration 100 μM", "result": "0.34 ± 0.02", "unit": "mol %"},
      {"measurement": "mol % of FA in Phospholipids, EPA", "setting": "yeast gat1 mutant [2]; feeding concentration 100 μM", "result": "0.85 ± 0.15", "unit": "mol %"},
      {"measurement": "mol % of FA in TAGS, DHA", "setting": "yeast gat1 mutant [2]; feeding concentration 100 μM", "result": "1.10 ± 0.07", "unit": "mol %"},
      {"measurement": "mol % of FA in TAGS, EPA", "setting": "yeast gat1 mutant [2]; feeding concentration 100 μM", "result": "3.38 ± 0.78", "unit": "mol %"},
      {"measurement": "Impact on incorporation of LCPUFAs into TAG or phospholipids compared to empty vector control", "setting": "yeast gat1 mutant [2]; yeast gat1 grown in presence of EPA or DHA, 3-day culture", "result": "did not have much impact"},
      {"measurement": "Molar percentage of DHA in phospholipids", "setting": "yeast gat1 mutant [3]; yeast gat1 fed DHA (22:6)", "result": 0.563, "unit": "%"},
      {"measurement": "Molar percentage of EPA in phospholipids", "setting": "yeast gat1 mutant [3]; yeast gat1 fed EPA (20:5)", "result": 3.696, "unit": "%"},
      {"measurement": "16:0 content of T2 seeds compared to non-transformed control", "setting": "Arabidopsis thaliana", "result": "More than half of the identified transgenic lines (GW) showed an increase of 16:0"}
    ]}
  ]
}
